From the supplement of paper PMC10567573

B1: PTPRD (parent)
chain: FICQATGDPRPKIVWNKKGKKVSN

Variants of: B1
Test: protein stability index of a GFP-peptide fusion (GPS, HEK-293T) (PSI 1-6); higher = more stable
Conditions: c terminus: a fixed tail appended
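Note: lentivirally expressed fusions sorted by FACS into six bins by GFP to DsRed ratio, PSI derived from sequencing read proportions per bin multiplied by bin number.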

Question: For FICQATGDPRPKIVWHKKGKKVSN [N16H], which protein stability index is on record?
Answer: 1.74

Question: With FICQATGDPRPKIVWAKKGKKVSN [N16A] as the variant, how does the protein stability index read?
Answer: 1.72

Question: Which protein stability index does the source give for FICQATGDPRPKIVWMKKGKKVSN [N16M] here?
Answer: 1.74

Question: For FICQATGDPRPKIVWIKKGKKVSN [N16I], which protein stability index is on record?
Answer: 1.99

Question: Which protein stability index does the source give for FICQATGDPRPKIVWLKKGKKVSN [N16L] here?
Answer: 1.91

Question: With FICQATGDPRPKIVWRKKGKKVSN [N16R] as the variant, how does the protein stability index read?
Answer: 1.96

Question: For FICQATGDPRPKIVWKKKGKKVSN [N16K], which protein stability index is on record?
Answer: 2.25

Question: Which protein stability index does the source give for FICQATGDPRPKIVWTKKGKKVSN [N16T] here?
Answer: 1.91

Question: For FICQATGDPRPKIVWPKKGKKVSN [N16P], which protein stability index is on record?
Answer: 1.75

Question: Which protein stability index does the source give for FICQATGDPRPKIVWDKKGKKVSN [N16D] here?
Answer: 2.45

Question: With FICQATGDPRPKIVWYKKGKKVSN [N16Y] as the variant, how does the protein stability index read?
Answer: 1.89

Question: Which protein stability index does the source give for FICQATGDPRPKIVWVKKGKKVSN [N16V] here?
Answer: 1.37

Question: With FICQATGDPRPKIVWFKKGKKVSN [N16F] as the variant, how does the protein stability index read?
Answer: 2.04

Question: With FICQATGDPRPKIVWEKKGKKVSN [N16E] as the variant, how does the protein stability index read?
Answer: 2.75

Question: Which protein stability index does the source give for FICQATGDPRPKIVWWKKGKKVSN [N16W] here?
Answer: 1.48

Question: With FICQATGDPRPKIVWCKKGKKVSN [N16C] as the variant, how does the protein stability index read?
Answer: 1.73

Question: For FICQATGDPRPKIVWSKKGKKVSN [N16S], which protein stability index is on record?
Answer: 2.24

Question: For FICQATGDPRPKIVWGKKGKKVSN [N16G], which protein stability index is on record?
Answer: 1.05

Question: For FICQATGDPRPKIVWQKKGKKVSN [N16Q], which protein stability index is on record?
Answer: 2.56

Question: For FICQATGDPRPKIYWNKKGKKVSN [V14Y], which protein stability index is on record?
Answer: 1.59

Question: For FICQATGDPRPKIVWNKKGKKYSN [V22Y], which protein stability index is on record?
Answer: 2.47

Question: Which protein stability index does the source give for FICQATGDPRPKIVWNKKGKKQSN [V22Q] here?
Answer: 2.47

Question: For FICQATGDPRPKIVWNKKGKKFSN [V22F], which protein stability index is on record?
Answer: 2.4

Question: With FICQATGDPRPKIVWNKKGKKTSN [V22T] as the variant, how does the protein stability index read?
Answer: 2.29

Question: Which protein stability index does the source give for FICQATGDPRPKIVWNKKGKKISN [V22I] here?
Answer: 2.17

Question: With FICQATGDPRPKIVWNKKGKKGSN [V22G] as the variant, how does the protein stability index read?
Answer: 2.58

Question: Which protein stability index does the source give for FICQATGDPRPKIVWNKKGKKSSN [V22S] here?
Answer: 2.41

Question: For FICQATGDPRPKIVWNKKGKKPSN [V22P], which protein stability index is on record?
Answer: 2.62

Question: With FICQATGDPRPKIVWNKKGKKDSN [V22D] as the variant, how does the protein stability index read?
Answer: 2.86

Question: With FICQATGDPRPKIVWNKKGKKESN [V22E] as the variant, how does the protein stability index read?
Answer: 2.34

Question: With FICQATGDPRPKIVWNKKGKKWSN [V22W] as the variant, how does the protein stability index read?
Answer: 2.35

Question: For FICQATGDPRPKIVWNKKGKKMSN [V22M], which protein stability index is on record?
Answer: 2.35

Question: For FICQATGDPRPKIVWNKKGKKRSN [V22R], which protein stability index is on record?
Answer: 2.04

Question: With FICQATGDPRPKIVWNKKGKKLSN [V22L] as the variant, how does the protein stability index read?
Answer: 2.36

Question: Which protein stability index does the source give for FICQATGDPRPKIVWNKKGKKCSN [V22C] here?
Answer: 2.13

Question: Which protein stability index does the source give for FICQATGDPRPKIVWNKKGKKKSN [V22K] here?
Answer: 2.66

Question: For FICQATGDPRPKIVWNKKGKKASN [V22A], which protein stability index is on record?
Answer: 2

Question: For FICQATGDPRPKIVWNKKGKKNSN [V22N], which protein stability index is on record?
Answer: 2.16

Question: Which protein stability index does the source give for FICQATGDPRPKIVWNKKGKKHSN [V22H] here?
Answer: 2.46

Question: With FICQATGDPRPKIVWNIKGKKVSN [K17I] as the variant, how does the protein stability index read?
Answer: 1.31

Question: For FICQATGDPRPKIVWNFKGKKVSN [K17F], which protein stability index is on record?
Answer: 1.56

Question: With FICQATGDPRPKIVWNCKGKKVSN [K17C] as the variant, how does the protein stability index read?
Answer: 1.92

Question: With FICQATGDPRPKIVWNGKGKKVSN [K17G] as the variant, how does the protein stability index read?
Answer: 1.77

Question: For FICQATGDPRPKIVWNEKGKKVSN [K17E], which protein stability index is on record?
Answer: 1.34

Question: With FICQATGDPRPKIVWNYKGKKVSN [K17Y] as the variant, how does the protein stability index read?
Answer: 1.68

Question: With FICQATGDPRPKIVWNAKGKKVSN [K17A] as the variant, how does the protein stability index read?
Answer: 1.37

Question: For FICQATGDPRPKIVWNDKGKKVSN [K17D], which protein stability index is on record?
Answer: 1.74

Question: For FICQATGDPRPKIVWNHKGKKVSN [K17H], which protein stability index is on record?
Answer: 1.96

Question: With FICQATGDPRPKIVWNWKGKKVSN [K17W] as the variant, how does the protein stability index read?
Answer: 2.78

Question: For FICQATGDPRPKIVWNLKGKKVSN [K17L], which protein stability index is on record?
Answer: 1.78

Question: Which protein stability index does the source give for FICQATGDPRPKIVWNQKGKKVSN [K17Q] here?
Answer: 1.84

Question: Which protein stability index does the source give for FICQATGDPRPKIVWNSKGKKVSN [K17S] here?
Answer: 1.79

Question: With FICQATGDPRPKIVWNTKGKKVSN [K17T] as the variant, how does the protein stability index read?
Answer: 1.55

Question: Which protein stability index does the source give for FICQATGDPRPKIVWNNKGKKVSN [K17N] here?
Answer: 2.31

Question: Which protein stability index does the source give for FICQATGDPRPKIVWNMKGKKVSN [K17M] here?
Answer: 1.78

Question: With FICQATGDPRPKIVWNRKGKKVSN [K17R] as the variant, how does the protein stability index read?
Answer: 2.21

Question: For FICQATGDPRPKIVWNVKGKKVSN [K17V], which protein stability index is on record?
Answer: 1.9

Question: With FICQATGDPRPKIVWNPKGKKVSN [K17P] as the variant, how does the protein stability index read?
Answer: 2.81

Question: For FICQATGDPRPKIVWNKKGKEVSN [K21E], which protein stability index is on record?
Answer: 2.25

Question: With FICQATGDPRPKIVWNKKGKFVSN [K21F] as the variant, how does the protein stability index read?
Answer: 1.61

Question: For FICQATGDPRPKIVWNKKGKQVSN [K21Q], which protein stability index is on record?
Answer: 1.77

Question: With FICQATGDPRPKIVWNKKGKLVSN [K21L] as the variant, how does the protein stability index read?
Answer: 2.9

Question: Which protein stability index does the source give for FICQATGDPRPKIVWNKKGKYVSN [K21Y] here?
Answer: 1.49

Question: For FICQATGDPRPKIVWNKKGKWVSN [K21W], which protein stability index is on record?
Answer: 1.72

Question: For FICQATGDPRPKIVWNKKGKGVSN [K21G], which protein stability index is on record?
Answer: 1.9

Question: With FICQATGDPRPKIVWNKKGKAVSN [K21A] as the variant, how does the protein stability index read?
Answer: 2.52

Question: With FICQATGDPRPKIVWNKKGKMVSN [K21M] as the variant, how does the protein stability index read?
Answer: 2.03

Question: With FICQATGDPRPKIVWNKKGKNVSN [K21N] as the variant, how does the protein stability index read?
Answer: 2.17

Question: For FICQATGDPRPKIVWNKKGKRVSN [K21R], which protein stability index is on record?
Answer: 2.49

Question: For FICQATGDPRPKIVWNKKGKVVSN [K21V], which protein stability index is on record?
Answer: 1.9

Question: With FICQATGDPRPKIVWNKKGKCVSN [K21C] as the variant, how does the protein stability index read?
Answer: 2.26

Question: With FICQATGDPRPKIVWNKKGKTVSN [K21T] as the variant, how does the protein stability index read?
Answer: 2.45

Question: For FICQATGDPRPKIVWNKKGKDVSN [K21D], which protein stability index is on record?
Answer: 1.99

Question: With FICQATGDPRPKIVWNKKGKPVSN [K21P] as the variant, how does the protein stability index read?
Answer: 2.18

Question: For FICQATGDPRPKIVWNKKGKSVSN [K21S], which protein stability index is on record?
Answer: 2.28

Question: With FICQATGDPRPKIVWNKKGKHVSN [K21H] as the variant, how does the protein stability index read?
Answer: 1.95

Question: With FICQATGDPRPKIVWNKKGKIVSN [K21I] as the variant, how does the protein stability index read?
Answer: 2.2

Question: With FICQATGDPRPKIVWNKKGWKVSN [K20W] as the variant, how does the protein stability index read?
Answer: 1.76

Question: With FICQATGDPRPKIVWNKKGIKVSN [K20I] as the variant, how does the protein stability index read?
Answer: 1.88

Question: With FICQATGDPRPKIVWNKKGGKVSN [K20G] as the variant, how does the protein stability index read?
Answer: 1.79

Question: For FICQATGDPRPKIVWNKKGAKVSN [K20A], which protein stability index is on record?
Answer: 1.82

Question: For FICQATGDPRPKIVWNKKGRKVSN [K20R], which protein stability index is on record?
Answer: 2.39

Question: With FICQATGDPRPKIVWNKKGHKVSN [K20H] as the variant, how does the protein stability index read?
Answer: 2.71

Question: For FICQATGDPRPKIVWNKKGNKVSN [K20N], which protein stability index is on record?
Answer: 1.77

Question: With FICQATGDPRPKIVWNKKGMKVSN [K20M] as the variant, how does the protein stability index read?
Answer: 1.8

Question: For FICQATGDPRPKIVWNKKGDKVSN [K20D], which protein stability index is on record?
Answer: 1.64

Question: With FICQATGDPRPKIVWNKKGVKVSN [K20V] as the variant, how does the protein stability index read?
Answer: 1.44

Question: With FICQATGDPRPKIVWNKKGSKVSN [K20S] as the variant, how does the protein stability index read?
Answer: 1.94

Question: Which protein stability index does the source give for FICQATGDPRPKIVWNKKGYKVSN [K20Y] here?
Answer: 1.48

Question: For FICQATGDPRPKIVWNKKGCKVSN [K20C], which protein stability index is on record?
Answer: 1.17

Question: Which protein stability index does the source give for FICQATGDPRPKIVWNKKGPKVSN [K20P] here?
Answer: 2

Question: Which protein stability index does the source give for FICQATGDPRPKIVWNKKGTKVSN [K20T] here?
Answer: 1.69

Question: Which protein stability index does the source give for FICQATGDPRPKIVWNKKGQKVSN [K20Q] here?
Answer: 2.56

Question: Which protein stability index does the source give for FICQATGDPRPKIVWNKKGLKVSN [K20L] here?
Answer: 1.96
